To fix the notation:
B1: bovine ZP3 fragment Arg-32 to Glu-178, N-terminal His-tag and S-tag [modified: N-glycosylated Asn-124 and Asn-146; N-glycosylated Asn-124 and Asn-146] [bovine] / bovine ZP4 (Lys-25 to Arg-464) with N-terminal FLAG-tag and … (parent)
chain 1: RFRPSKPPAVMVECQEAQLVVTVDKDLFGTGKLIRPADLTLGPDNCEPLASADTDGVVRFAVGLHECGNILQVTDNALVYSTFLLHNPRPAGNLSILRTNRAEVPIECHYPRQGNVSSWAIQPTWVPFRTTVFSEEKLVFSLRLMEE
chain 2: KVPEYPDELRCGLRSFQFTINPLSQETETPPVLVAWDNHGLPHSLQNDSDCGTWVSEGPGSSLVGEASYSGCYVTEWESYYIMTVGIERAGVSGSGAFIETKLFKCPVNLPDVPNAGLCDSVPVWDRLPCAPSPITQGDCKQLGCCYNSEEVISCYYGNTVTSHCTQDGHFSIAVSRNVTSPPLLLNSVHLAFRNDSECKPVMATHTFVLFRFPFTTCGTTKQITGKQAVYENELVAARDVRTWSRGSITRDSTFRLQVSCSYSASSSALPVNVQVLTLPPPLPETQPGNLTLELKIAKDKRYRSYYTASDYPVVKLLRDPIYVEVSIHQRTDPSLELRLDQCWATPGADALLQPQWPLLVNGCPYTGDNYQTKLIPVWEASDLPFPSHYQRFSISTFSFVDSVAKRALKGPVYLHCSASVCQPAGTPSCVTLCPARRRR

The variants in this test derive from B1. The test can be described thus: co-precipitation (TALON resin pull-down of His-tagged ZP3 fragment, anti-FLAG Western blot quantified with NIH ImageJ). As to conditions: with bovine ZP4 (Lys-25 to Arg-464) with N-terminal FLAG-tag and S-tag [bovine]; parent: 100; read off a plot.
Regarding chain 1 RFRPSKPPAVMVECQEAQLVVTVDKDLFGTGKLIRPADLTLGPDNCEPLASADTDGVVRFAVGLHECGNILQVTDNALVYSTFLLHNPRPAGDLSILRTNRAEVPIECHYPRQGNVSSWAIQPTWVPFRTTVFSEEKLVFSLRLMEE, the percent of parent turned out to be 100%.
The same measure for chain 1 RFRPSKPPAVMVECQEAQLVVTVDKDLFGTGKLIRPADLTLGPDNCEPLASADTDGVVRFAVGLHECGNILQVTDNALVYSTFLLHNPRPAGDLSILRTNRAEVPIECHYPRQGDVSSWAIQPTWVPFRTTVFSEEKLVFSLRLMEE: 110%; for chain 1 RFRPSKPPAVMVECQEAQLVVTVDKDLFGTGKLIRPADLTLGPDNCEPLASADTDGVVRFAVGLHECGNILQVTDNALVYSTFLLHNPRPAGNLSILRTNRAEVPIECHYPRQGDVSSWAIQPTWVPFRTTVFSEEKLVFSLRLMEE: 130%.

Values taken from paper PMC4693281.
